These results are taken from patent US20260263595A1 (BETH ISRAEL DEACONESS MEDICAL CENTER, published 2026).

This assay deals with T1, human CD40 on human B cells (CD20+ cells of human PBMCs) (human, UniProt P25942 21-277).
T1 construct: whole, on cells; also called native CD40 on human blood B cells; human CD20+ B cells
Description: flow cytometry on human PBMCs, CD20+ gate (FIG. 2A). The procedure:
The CD40 antibody 2C10 was characterized with respect to its ability to affect B cell activation both using rhesus monkey and human peripheral blood mononuclear cells (PBMCs). CD20 expression was chosen as being an indicator of B cells, and expression of CD23, CD80, and CD86 is associated with B cell activation. 2C10 was first assessed for its ability to bind to […]. Rhesus or human PBMCs were incubated with fluorochrome-conjugated 2C10 and an anti-CD20 antibody. Flow cytometric analysis was used to confirm the binding of 2C10 to human and rhesus CD20+ B cells (FIG. 2A). In another set of experiments, PBMCs from either rhesus monkey or humans were cultured either in the presence or absence of CD154⁺ Jurkat D1.1 cells, an immortalized T lymphocyte cell line. Activation of B cells was determined by measuring expression of three markers (CD23, CD80, and CD86) in CD20⁺ cells present in the PBMCs.
In general terms: A flow cytometer gives signals particle by particle.

T1 sequence (P25942 21-277): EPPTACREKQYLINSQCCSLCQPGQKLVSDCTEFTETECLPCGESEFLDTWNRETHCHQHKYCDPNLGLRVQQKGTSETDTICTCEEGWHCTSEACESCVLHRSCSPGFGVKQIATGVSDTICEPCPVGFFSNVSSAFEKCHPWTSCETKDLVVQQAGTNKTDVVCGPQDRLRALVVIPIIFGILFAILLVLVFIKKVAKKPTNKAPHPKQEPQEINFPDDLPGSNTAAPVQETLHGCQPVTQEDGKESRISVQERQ

B1: anti-CD40 antibody 2C10 (antibody, mouse IgG1, V domains shown)
VH: QVQLQQSGAELAKPGASVKMSCKASGYTFTNYWMHWVKQRPGQGLEWIGYINPSNDYTKYNQKFKDKATLTADKSSNTAYMQLGSLTSEDSAVYYCARQGFPYWGQGTLVTVS
VL: QIVLTQSPAIMSASPGEKVTMTCSASSSVSYMHWYHQRSGTSPKRWIYDTSKLASGVPARFSGSGSGTSYSLTISSMEAEDAATYYCHQLSSDPFTFGSGTKLEIK
notes: also called 2C10 antibody; APC-conjugated 2C10
On to B1, for which the binding result is “binds”.
